Patent publication US20140087995A1 (published 2014)
Numbered stars: 1 amine (or outer) side, 2 acyl side, 3 side chain; on linkers, the order of the positions; unused ones are H or OH. Bridge positions count the residues as written; N and C are the ends. Square brackets hold non-standard residues; d marks the D form. Side chains are listed from the residue outwards. Ends that are not written are not given here. * marks the point of attachment. C20 diacid = O=C(O)CCCCCCCCCCCCCCCCCCC(=O)*; γGlu = O=C(O)[C@H](CCC(=O)[*:2])N[*:1]

T1: human calcitonin receptor (human, UniProt P30988 25-474)
T1 sequence (looked up): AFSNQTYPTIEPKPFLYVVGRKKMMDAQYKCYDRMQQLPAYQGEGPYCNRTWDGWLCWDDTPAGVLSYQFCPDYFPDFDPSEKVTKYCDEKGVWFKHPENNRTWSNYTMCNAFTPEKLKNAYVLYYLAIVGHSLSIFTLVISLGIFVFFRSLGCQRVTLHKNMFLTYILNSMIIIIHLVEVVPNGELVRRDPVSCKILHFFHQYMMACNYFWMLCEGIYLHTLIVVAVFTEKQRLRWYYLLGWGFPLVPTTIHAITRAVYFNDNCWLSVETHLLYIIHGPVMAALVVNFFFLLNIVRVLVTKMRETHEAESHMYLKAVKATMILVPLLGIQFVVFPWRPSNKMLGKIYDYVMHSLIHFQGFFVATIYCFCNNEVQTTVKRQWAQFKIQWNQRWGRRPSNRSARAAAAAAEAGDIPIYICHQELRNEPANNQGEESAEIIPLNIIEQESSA

T2: human amylin receptor (amylin 3(a) receptor: human calcitonin receptor with RAMP-3) (human, UniProt P30988 25-474; O60896 24-148, limits assumed)
T2 construct: whole, on cells; Whole cells in the luciferase assay (Assay II a); also called hAmylin-R; hAmylinR
T2 sequence (looked up) 1: T1 sequence (looked up)
T2 sequence (looked up) 2: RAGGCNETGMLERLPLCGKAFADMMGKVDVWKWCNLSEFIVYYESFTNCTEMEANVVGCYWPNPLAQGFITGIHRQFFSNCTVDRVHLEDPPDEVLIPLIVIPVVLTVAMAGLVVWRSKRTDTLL

T3: human calcitonin receptor (human, UniProt P30988 25-474)
T3 sequence (looked up): T1 sequence (looked up)

T4: human amylin receptor (amylin 3(a) receptor: human calcitonin receptor with RAMP-3) (human, UniProt P30988 25-474; O60896 24-148, limits assumed)
T4 sequence (looked up) 1: T1 sequence (looked up)
T4 sequence (looked up) 2: T2 sequence (looked up) 2

B1: N^ε1-[(4S)-4-carboxy-4-[[(4S)-4-carboxy-4-(19-carboxynonadecanoylamino)butanoyl]amino]butanoyl]-[D-Asp14,Arg17,Pro21,Pro27,Arg35]-h-amylin (peptide)
peptide: K([γGlu-γGlu-C20 diacid])CNTATCATQRLA[dD]FLRHSSPNFGAIPSSTNVGSRTY-NH2
modifications: disulfide 2-7; N-terminus assumed
SMILES: CC[C@H](C)[C@H](NC(=O)[C@H](C)NC(=O)CNC(=O)[C@H](Cc1ccccc1)NC(=O)[C@H](CC(N)=O)NC(=O)[C@@H]1CCCN1C(=O)[C@H](CO)NC(=O)[C@H](CO)NC(=O)[C@H](Cc1c[nH]cn1)NC(=O)[C@H](CCCNC(=N)N)NC(=O)[C@H](CC(C)C)NC(=O)[C@H](Cc1ccccc1)NC(=O)[C@@H](CC(=O)O)NC(=O)[C@H](C)NC(=O)[C@H](CC(C)C)NC(=O)[C@H](CCCNC(=N)N)NC(=O)[C@H](CCC(N)=O)NC(=O)[C@@H](NC(=O)[C@H](C)NC(=O)[C@@H]1CSSC[C@H](NC(=O)[C@@H](N)CCCCNC(=O)CC[C@H](NC(=O)CC[C@H](NC(=O)CCCCCCCCCCCCCCCCCCC(=O)O)C(=O)O)C(=O)O)C(=O)N[C@@H](CC(N)=O)C(=O)N[C@@H]([C@@H](C)O)C(=O)N[C@@H](C)C(=O)N[C@@H]([C@@H](C)O)C(=O)N1)[C@@H](C)O)C(=O)N1CCC[C@H]1C(=O)N[C@@H](CO)C(=O)N[C@@H](CO)C(=O)N[C@H](C(=O)N[C@@H](CC(N)=O)C(=O)N[C@H](C(=O)NCC(=O)N[C@@H](CO)C(=O)N[C@@H](CCCNC(=N)N)C(=O)N[C@H](C(=O)N[C@@H](Cc1ccc(O)cc1)C(N)=O)[C@@H](C)O)C(C)C)[C@@H](C)O
B2: N^ε1-[(4S)-4-carboxy-4-[[(4S)-4-carboxy-4-(19-carboxynonadecanoylamino)butanoyl]amino]butanoyl]-[Glu14,Arg17,Pro21,Pro27,Pro34,Arg35]-h-amylin (peptide)
peptide: K([γGlu-γGlu-C20 diacid])CNTATCATQRLAEFLRHSSPNFGAIPSSTNVGPRTY-NH2
modifications: disulfide 2-7; N-terminus assumed
SMILES: CC[C@H](C)[C@H](NC(=O)[C@H](C)NC(=O)CNC(=O)[C@H](Cc1ccccc1)NC(=O)[C@H](CC(N)=O)NC(=O)[C@@H]1CCCN1C(=O)[C@H](CO)NC(=O)[C@H](CO)NC(=O)[C@H](Cc1c[nH]cn1)NC(=O)[C@H](CCCNC(=N)N)NC(=O)[C@H](CC(C)C)NC(=O)[C@H](Cc1ccccc1)NC(=O)[C@H](CCC(=O)O)NC(=O)[C@H](C)NC(=O)[C@H](CC(C)C)NC(=O)[C@H](CCCNC(=N)N)NC(=O)[C@H](CCC(N)=O)NC(=O)[C@@H](NC(=O)[C@H](C)NC(=O)[C@@H]1CSSC[C@H](NC(=O)[C@@H](N)CCCCNC(=O)CC[C@H](NC(=O)CC[C@H](NC(=O)CCCCCCCCCCCCCCCCCCC(=O)O)C(=O)O)C(=O)O)C(=O)N[C@@H](CC(N)=O)C(=O)N[C@@H]([C@@H](C)O)C(=O)N[C@@H](C)C(=O)N[C@@H]([C@@H](C)O)C(=O)N1)[C@@H](C)O)C(=O)N1CCC[C@H]1C(=O)N[C@@H](CO)C(=O)N[C@@H](CO)C(=O)N[C@H](C(=O)N[C@@H](CC(N)=O)C(=O)N[C@H](C(=O)NCC(=O)N1CCC[C@H]1C(=O)N[C@@H](CCCNC(=N)N)C(=O)N[C@H](C(=O)N[C@@H](Cc1ccc(O)cc1)C(N)=O)[C@@H](C)O)C(C)C)[C@@H](C)O
notes: also called compound 110
B3: N^ε1-[(4S)-4-carboxy-4-[[(4S)-4-carboxy-4-(19-carboxynonadecanoylamino)butanoyl]amino]butanoyl]-[Glu14,Arg17,Pro21,Pro27,Arg35]-h-amylin (peptide)
peptide: K([γGlu-γGlu-C20 diacid])CNTATCATQRLAEFLRHSSPNFGAIPSSTNVGSRTY-NH2
modifications: disulfide 2-7; N-terminus assumed
SMILES: CC[C@H](C)[C@H](NC(=O)[C@H](C)NC(=O)CNC(=O)[C@H](Cc1ccccc1)NC(=O)[C@H](CC(N)=O)NC(=O)[C@@H]1CCCN1C(=O)[C@H](CO)NC(=O)[C@H](CO)NC(=O)[C@H](Cc1c[nH]cn1)NC(=O)[C@H](CCCNC(=N)N)NC(=O)[C@H](CC(C)C)NC(=O)[C@H](Cc1ccccc1)NC(=O)[C@H](CCC(=O)O)NC(=O)[C@H](C)NC(=O)[C@H](CC(C)C)NC(=O)[C@H](CCCNC(=N)N)NC(=O)[C@H](CCC(N)=O)NC(=O)[C@@H](NC(=O)[C@H](C)NC(=O)[C@@H]1CSSC[C@H](NC(=O)[C@@H](N)CCCCNC(=O)CC[C@H](NC(=O)CC[C@H](NC(=O)CCCCCCCCCCCCCCCCCCC(=O)O)C(=O)O)C(=O)O)C(=O)N[C@@H](CC(N)=O)C(=O)N[C@@H]([C@@H](C)O)C(=O)N[C@@H](C)C(=O)N[C@@H]([C@@H](C)O)C(=O)N1)[C@@H](C)O)C(=O)N1CCC[C@H]1C(=O)N[C@@H](CO)C(=O)N[C@@H](CO)C(=O)N[C@H](C(=O)N[C@@H](CC(N)=O)C(=O)N[C@H](C(=O)NCC(=O)N[C@@H](CO)C(=O)N[C@@H](CCCNC(=N)N)C(=O)N[C@H](C(=O)N[C@@H](Cc1ccc(O)cc1)C(N)=O)[C@@H](C)O)C(C)C)[C@@H](C)O
notes: also called compound 89

Each binder was assayed against T1, human calcitonin receptor (assay: cell-based or functional assay).

Row | hCTR funct. EC50 (pM) | Ratio hCT/hAmylin funct. | Binder
1 | 100000 pM |  | B1
2 | 8160 pM | 29.3 ratio | B2
3 | 11200 pM | 27.8 ratio | B3

What follows are binders tested against T2, human amylin receptor (amylin 3(a) …) (assay: SPA competition binding on membranes of BHK cells with human calcitonin receptor + RAMP-3; displacement of 125I-rat amylin (Assay V)).
Outline: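 One-site competition analysis of SPA counts yielded IC₅₀ as a measure of affinity. Membranes were at 35 ng/μL final; incubation was 120 min at 25° C, pH 7.4.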

Row | IC50 | Binder
4 | 0.365 nM | B1
5 | 0.326 nM | B2
6 | 1.16 nM | B3

The binders below were run against T3, human calcitonin receptor (assay: cell-based or functional assay).

Row | hCTR funct. EC50 (pM) | Binder
7 | 1120 pM | K([γGlu-C20 diacid])CNTATCATQRLADFLRHSSPNFGAIPSSTNVGPETY-NH2 (disulfide 2-7 (inferred))
8 | 843 pM | K([γGlu-γGlu-C20 diacid])CNTATCATQRLADFLRHSSPNFGAIPSSTNVGPETY-NH2 (disulfide 2-7 (inferred))
9 | 8660 pM | K([γGlu-γGlu-C20 diacid])CNTATCATQRLANFLRHSSPNFGAIPSSTPVGPRTY-NH2 (disulfide 2-7 (inferred))
10 | 2140 pM | K([γGlu-γGlu-C20 diacid])CNTATCATQRLAEFLRHSSPNFGAIPSSTNVGPNTF-NH2 (disulfide 2-7 (inferred))
11 | 5580 pM | K([γGlu-C20 diacid])CNTATCATQRLAEFLRHSSPNFGAIPSSTNVGSHTY-NH2 (disulfide 2-7 (inferred))
12 | 89600 pM | K([γGlu-γGlu-C20 diacid])CNTATCATQRLAEFLRHSSNNPGAILSSTNVGPETY-NH2 (disulfide 2-7 (inferred))
13 | 100000 pM | K([γGlu-γGlu-C20 diacid])CNTATCATQRLA[dD]FLRHSSPNFGAIPSSTNVGSRTY-NH2 (disulfide 2-7 (inferred))
14 | 2830 pM | K([γGlu-γGlu-C20 diacid])CNTATCATQRLAEFLRHSSPNFGAIPSSTNVGPHTY-NH2 (disulfide 2-7 (inferred))
15 | 3640 pM | K([γGlu-C20 diacid])CNTATCATQRLADFLRHSSPNFGAIPSSTNVGPRTY-NH2 (disulfide 2-7 (inferred))
16 | 1280 pM | K([γGlu-γGlu-C20 diacid])CNTATCATQRLAEFLRHSSPNFGAILSSTPVGPETY-NH2 (disulfide 2-7 (inferred))
17 | 7280 pM | K([γGlu-γGlu-C20 diacid])CNTATCATQRLADFLRHSSPNFGAIPSSTNVGPRTY-NH2 (disulfide 2-7 (inferred), also called compound 130)
18 | 887 pM | K([γGlu-γGlu-C20 diacid])CNTATCATQRLASFLRHSSPNFGAIPSSTNVGPETY-NH2 (disulfide 2-7 (inferred), also called compound 120)
19 | 1450 pM | K([γGlu-C20 diacid])CNTATCATQRLAEFLRHSSPNFGAIPSSTNVGPHTY-NH2 (disulfide 2-7 (inferred))
20 | 102 pM | K([γGlu-γGlu-C20 diacid])CNTATCATQRLAEFLRHSSPNFGAIPSSTNVGPETP-NH2 (disulfide 2-7 (inferred))

These binders were tested against T4, human amylin receptor (amylin 3(a) …) (assay: cell-based or functional assay).

Row | Ratio hCT/hAmylin funct. | hAmylin-R funct. EC50 (pM) | Binder
21 | 3.9 | 288 pM | K([γGlu-C20 diacid])CNTATCATQRLADFLRHSSPNFGAIPSSTNVGPETY-NH2 (disulfide 2-7 (inferred))
22 | 5.3 | 159 pM | K([γGlu-γGlu-C20 diacid])CNTATCATQRLADFLRHSSPNFGAIPSSTNVGPETY-NH2 (disulfide 2-7 (inferred))
23 |  | 333 pM | K([γGlu-γGlu-C20 diacid])CNTATCATQRLANFLRHSSPNFGAIPSSTPVGPRTY-NH2 (disulfide 2-7 (inferred))
24 | 9.9 | 216 pM | K([γGlu-γGlu-C20 diacid])CNTATCATQRLAEFLRHSSPNFGAIPSSTNVGPNTF-NH2 (disulfide 2-7 (inferred))
25 |  | 425 pM | K([γGlu-C20 diacid])CNTATCATQRLAEFLRHSSPNFGAIPSSTNVGSHTY-NH2 (disulfide 2-7 (inferred))
26 |  | 5170 pM | K([γGlu-γGlu-C20 diacid])CNTATCATQRLAEFLRHSSNNPGAILSSTNVGPETY-NH2 (disulfide 2-7 (inferred))
27 |  | 383 pM | K([γGlu-γGlu-C20 diacid])CNTATCATQRLA[dD]FLRHSSPNFGAIPSSTNVGSRTY-NH2 (disulfide 2-7 (inferred))
28 |  | 172 pM | K([γGlu-γGlu-C20 diacid])CNTATCATQRLAEFLRHSSPNFGAIPSSTNVGPHTY-NH2 (disulfide 2-7 (inferred))
29 |  | 146 pM | K([γGlu-C20 diacid])CNTATCATQRLADFLRHSSPNFGAIPSSTNVGPRTY-NH2 (disulfide 2-7 (inferred))
30 | 5.8 | 222 pM | K([γGlu-γGlu-C20 diacid])CNTATCATQRLAEFLRHSSPNFGAILSSTPVGPETY-NH2 (disulfide 2-7 (inferred))
31 |  | 162 pM | K([γGlu-γGlu-C20 diacid])CNTATCATQRLADFLRHSSPNFGAIPSSTNVGPRTY-NH2 (disulfide 2-7 (inferred), also called compound 130)
32 | 8.1 | 109 pM | K([γGlu-γGlu-C20 diacid])CNTATCATQRLASFLRHSSPNFGAIPSSTNVGPETY-NH2 (disulfide 2-7 (inferred), also called compound 120)
33 |  | 101 pM | K([γGlu-C20 diacid])CNTATCATQRLAEFLRHSSPNFGAIPSSTNVGPHTY-NH2 (disulfide 2-7 (inferred))
34 | 0.8 | 132 pM | K([γGlu-γGlu-C20 diacid])CNTATCATQRLAEFLRHSSPNFGAIPSSTNVGPETP-NH2 (disulfide 2-7 (inferred))
